Fewer inactive variants are shown than the library holds.
Assays:
biotinyl-Phe-oxazolone = experiment: self-aminoacylation, catalytic enhancement (BFO) (fold over background); higher = more active; k-Seq, kA / k0A0; sequences stand for … in GGGAAUGGAUCCACAUCUACGAAUUC…UUCACUGCAGACUUGACGAAGCUG
Procedure, shortened: (§1)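 Working in 50 μL HEPES/NaCl/KCl/MgCl2/CaCl2 buffer with 5% acetonitrile at pH 6.9–7.0, mutagenized RNA pools (0.43 μM; 21-nt variable region) were reacted with 2–1250 μM of each biotinyl-aminoacyl-oxazolone for 90 minutes at room temperature. Streptavidin capture followed, with quantification by triplicate qPCR and Illumina sequencing. Catalytic enhancement is reported as median kA over the uncatalyzed rate, the low-activity peak of a bimodal Gaussian fit to the data.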

biotinyl-Ile-oxazolone = experiment: self-aminoacylation, catalytic enhancement (BIO) (fold over background); higher = more active; k-Seq, kA / k0A0; sequences stand for … in GGGAAUGGAUCCACAUCUACGAAUUC…UUCACUGCAGACUUGACGAAGCUG
Procedure, shortened: as §1

biotinyl-Met-oxazolone = experiment: self-aminoacylation, catalytic enhancement (BMO) (fold over background); higher = more active; k-Seq, kA / k0A0; sequences stand for … in GGGAAUGGAUCCACAUCUACGAAUUC…UUCACUGCAGACUUGACGAAGCUG
Procedure, shortened: as §1

biotinyl-Val-oxazolone = experiment: self-aminoacylation, catalytic enhancement (BVO) (fold over background); higher = more active; k-Seq, kA / k0A0; sequences stand for … in GGGAAUGGAUCCACAUCUACGAAUUC…UUCACUGCAGACUUGACGAAGCUG
Procedure, shortened: as §1

biotinyl-Leu-oxazolone = experiment: self-aminoacylation, catalytic enhancement (BLO) (fold over background); higher = more active; k-Seq, kA / k0A0; sequences stand for … in GGGAAUGGAUCCACAUCUACGAAUUC…UUCACUGCAGACUUGACGAAGCUG
Procedure, shortened: as §1

biotinyl-Trp-oxazolone = experiment: self-aminoacylation, catalytic enhancement (BWO) (fold over background); higher = more active; k-Seq, kA / k0A0; sequences stand for … in GGGAAUGGAUCCACAUCUACGAAUUC…UUCACUGCAGACUUGACGAAGCUG
Procedure, shortened: as §1

Sequence	self-aminoacylation (biotinyl-Phe-oxazolone)	self-aminoacylation (biotinyl-Ile-oxazolone)	self-aminoacylation (biotinyl-Met-oxazolone)	self-aminoacylation (biotinyl-Val-oxazolone)	self-aminoacylation (biotinyl-Leu-oxazolone)	self-aminoacylation (biotinyl-Trp-oxazolone)
AAGUUUGCAAAUAGUAGCAAG [Fam3.1 aminoacylation ribozyme variant]	1.62	1.27	1.03	0.939	1.07	0.923
AAGUUUGCAAAUAGUCGAAAG [Fam3.1 aminoacylation ribozyme variant]	1.58	0.956	0.974	0.824	0.913	1.04
AAGUUUGCAAAUAGUCUCAAG [Fam3.1 aminoacylation ribozyme variant]	0.972	0.987	1.12	0.772	0.747	0.81
AAGUUUGCAAAUUGUCGCAAG [Fam3.1 aminoacylation ribozyme variant]	0.968	1.26	1.47	1.19	1.57	1.53
AAGUUUGCACAUAGUCGCAAG [Fam3.1 aminoacylation ribozyme variant]	0.76	0.804	0.656	0.73	0.586	0.682
AAGUUUGCCAAUAGACGCAAG [Fam3.1 aminoacylation ribozyme variant]	0.674	0.591	0.625	0.664	0.562	0.482
AAGUUUGCCAAUAGUCGAAAG [Fam3.1 aminoacylation ribozyme variant]	0.727	1.05	1.44	1.02	0.911	1.5
AAGUUUGCCAAUAGUCGUAAG [Fam3.1 aminoacylation ribozyme variant]	1.38	0.916	0.873	0.732	0.724	1.51
AAGUUUGCCAAUGGUCGCAAG [Fam3.1 aminoacylation ribozyme variant]	0.499	0.987	1.02	0.852	1	1.01
AAGUUUGCCAGUAGUCGCAAG [Fam3.1 aminoacylation ribozyme variant]	0.763	1.04	0.793	0.932	1.02	1.21
AAGUUUGCGAAUAGUCCCAAG [Fam3.1 aminoacylation ribozyme variant]	1.03	1.06	1.14	0.844	0.951	0.863
AAGUUUGCGAAUAGUUGCAAG [Fam3.1 aminoacylation ribozyme variant]	0.975	0.915	1.2	0.803	0.661	1.16
AAGUUUGCGAAUGGUCGCAAG [Fam3.1 aminoacylation ribozyme variant]	5.78	0.908	0.97	1.11	0.728	1.47
AAGUUUGCUAAAAGUCGCAAA [Fam3.1 aminoacylation ribozyme variant]	1.91	1.7	1.87	1.59	1.67	1.32
AAGUUUGCUAAAAGUCGCAAC [Fam3.1 aminoacylation ribozyme variant]	0.796	1.08	1.1	0.948	1.25	1.01
AAGUUUGCUAAAAGUCGCAGG [Fam3.1 aminoacylation ribozyme variant]	1.77	1.26	1.37	1.12	1.07	1.3
AAGUUUGCUAAAAGUCGGAAG [Fam3.1 aminoacylation ribozyme variant]	5.57	0.814	0.755	0.924	0.778	1.22
AAGUUUGCUAAAUGUCGCAAG [Fam3.1 aminoacylation ribozyme variant]	0.96	1	0.876	0.837	1.1	0.74
AAGUUUGCUAACAGUCACAAG [Fam3.1 aminoacylation ribozyme variant]	2.73	0.92	1.04	0.942	1.12	1.06
AAGUUUGCUAACAGUCGAAAG [Fam3.1 aminoacylation ribozyme variant]	5.73	0.878	0.838	0.848	0.689	2
AAGUUUGCUAACAGUCGCAAG [Fam3.1 aminoacylation ribozyme variant]	21.1	1.18	1.29	1.06	0.961	5.51

From the supplement of paper PMC9233669
